Laboratory results from patent US20230265184A1.
Blank lines part the entries; values can stand above or below the binder they belong to.

Biological target: m19-humBBz CAR (mouse; human) (UniProt P01731)
Test: cell-based or functional assay

- NF-κB signaling in NF-κB/293/GFP-Luc reporter cells, GFP %: 30.8%
- NF-κB signaling in NF-κB/293/GFP-Luc reporter cells, GFP MFI: 6060 MFI
B1: TRAF3 DN (382-568aa) (protein, UniProt Q13114 382-568, looked up, not shown: small tags and cut ends; large carriers)
chain: ESQLSRHDQMLSVHDIRLADMDLRFQVLETASYNGVLIWKIRDYKRRKQEAVMGKTLSLYSQPFYTGYFGYKMCARVYLNGDGMGKGTHLSLFFVIMRGEYDALLPWPFKQKVTLMLMDQGSSRRHLGDAFKPDPNSSSFKKPTGEMNIASGCPVFVAQTVLENGTYIKDDTIFIKVIVDTSDLPDP

- NF-κB signaling in NF-κB/293/GFP-Luc reporter cells, GFP MFI: 14300 MFI
- NF-κB signaling in NF-κB/293/GFP-Luc reporter cells, GFP+%: 63.5%
B2: TRAF2 DN (87-501aa) (protein, UniProt Q12933 87-501, looked up, not shown: small tags and cut ends; large carriers)
chain: SSSAFPDNAARREVESLPAVCPSDGCTWKGTLKEYESCHEGRCPLMLTECPACKGLVRLGEKERHLEHECPERSLSCRHCRAPCCGADVKAHHEVCPKFPLTCDGCGKKKIPREKFQDHVKTCGKCRVPCRFHAIGCLETVEGEKQQEHEVQWLREHLAMLLSSVLEAKPLLGDQSHAGSELLQRCESLEKKTATFENIVCVLNREVERVAMTAEACSRQHRLDQDKIEALSSKVQQLERSIGLKDLAMADLEQKVLEMEASTYDGVFIWKISDFARKRQEAVAGRIPAIFSPAFYTSRYGYKMCLRIYLNGDGTGRGTHLSLFFVVMKGPNDALLRWPFNQKVTLMLLDQNNREHVIDAFRPDVTSSSFQRPVNDMNIASGCPLFCPVSKMEAKNSYVRDDAIFIKAIVDLTGL

- NF-κB signaling in NF-κB/293/GFP-Luc reporter cells, GFP %: 13.4%
- NF-κB signaling in NF-κB/293/GFP-Luc reporter cells, GFP MFI: 1690 MFI
B3: TRAF1 DN (184-417aa) (protein, UniProt Q13077 184-416, looked up, not shown: small tags and cut ends; large carriers)
chain: EKLLAELEGKLRVFENIVAVLNKEVEASHLALATSIHQSQLDRERILSLEQRVVELQQTLAQKDQALGKLEQSLRLMEEASFDGTFLWKITNVTRRCHESACGRTVSLFSPAFYTAKYGYKLCLRLYLNGDGTGKRTHLSLFIVIMRGEYDALLPWPFRNKVTFMLLDQNNREHAIDAFRPDLSSASFQRPQSETNVASGCPLFFPLSKLQSPKHAYVKDDTMFLKCIVETST
